Laboratory results published in patent US20140087995A1 (published 2014).
Numbered stars: 1 amine (or outer) side, 2 acyl side, 3 side chain; on linkers, the order of the positions; unused ones are H or OH. Bridge positions count the residues as written; N and C are the ends. Side chains are listed from the residue outwards. Ends that are not written are not given here. * marks the point of attachment. C20 diacid = O=C(O)CCCCCCCCCCCCCCCCCCC(=O)*; γGlu = O=C(O)[C@H](CCC(=O)[*:2])N[*:1]; AEEA = NCCOCCOCC(=O)O

T1: human amylin receptor (amylin 3(a) receptor: human calcitonin receptor plus RAMP-3) (human, UniProt P30988 25-474; O60896 24-148)
T1 construct: whole, on cells; functional assay (II)a used the whole cells; also called hAmylin-R; hAmylinR
T1 sequence (looked up) 1: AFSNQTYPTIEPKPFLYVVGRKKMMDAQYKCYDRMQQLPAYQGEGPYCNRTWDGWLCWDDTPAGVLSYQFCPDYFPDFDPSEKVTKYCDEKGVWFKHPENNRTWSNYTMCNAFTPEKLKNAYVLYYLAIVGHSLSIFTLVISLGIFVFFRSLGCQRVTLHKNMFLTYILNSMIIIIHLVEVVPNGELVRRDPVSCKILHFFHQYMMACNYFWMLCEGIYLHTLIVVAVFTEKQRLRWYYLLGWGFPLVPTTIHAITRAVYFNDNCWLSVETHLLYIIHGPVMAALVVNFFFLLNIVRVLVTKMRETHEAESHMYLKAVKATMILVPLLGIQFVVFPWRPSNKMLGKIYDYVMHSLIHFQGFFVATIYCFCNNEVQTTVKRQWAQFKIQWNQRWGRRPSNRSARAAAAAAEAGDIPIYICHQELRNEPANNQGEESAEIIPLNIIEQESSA
T1 sequence (looked up) 2: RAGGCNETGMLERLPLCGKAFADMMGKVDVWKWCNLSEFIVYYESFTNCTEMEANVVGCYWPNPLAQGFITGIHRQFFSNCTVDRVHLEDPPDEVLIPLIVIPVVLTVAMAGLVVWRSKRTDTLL

T2: human calcitonin receptor (human, UniProt P30988 25-474)
T2 sequence (looked up): T1 sequence (looked up) 1

T3: rat calcitonin receptor (rat, UniProt P32214 25-516)
T3 construct: whole, on cells; Membranes prepared from transiently transfected BHK tk'ts 13 cells; also called rCTR; rat calcitonin (a) receptor
T3 sequence (looked up): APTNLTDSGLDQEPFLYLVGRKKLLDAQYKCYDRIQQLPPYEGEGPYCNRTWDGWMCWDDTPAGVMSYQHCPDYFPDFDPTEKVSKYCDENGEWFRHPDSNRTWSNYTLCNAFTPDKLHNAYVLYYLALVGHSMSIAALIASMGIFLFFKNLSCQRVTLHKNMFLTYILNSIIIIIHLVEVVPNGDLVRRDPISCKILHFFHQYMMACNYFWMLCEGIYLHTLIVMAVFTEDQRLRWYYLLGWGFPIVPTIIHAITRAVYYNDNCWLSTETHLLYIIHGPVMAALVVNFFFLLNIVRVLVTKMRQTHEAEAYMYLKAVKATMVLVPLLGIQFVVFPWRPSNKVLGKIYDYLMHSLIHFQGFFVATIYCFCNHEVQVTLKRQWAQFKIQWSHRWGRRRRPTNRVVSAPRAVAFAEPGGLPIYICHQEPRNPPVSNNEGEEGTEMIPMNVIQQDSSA

T4: human calcitonin receptor (human, UniProt P30988 25-474)
T4 construct: whole, on cells; Membranes from stably transfected BHK cells; also called hCTR; hCT
T4 sequence (looked up): T1 sequence (looked up) 1

T5: rat amylin receptor (rat calcitonin receptor + rat RAMP 3) (rat, UniProt P32214 25-516; Q9JJ73 23-147)
T5 construct: whole, on cells; Membranes prepared from transiently transfected BHK tk'ts 13 cells; also called rAmylin-R; rat amylin 3(a) receptor
T5 sequence (looked up) 1: T3 sequence (looked up)
T5 sequence (looked up) 2: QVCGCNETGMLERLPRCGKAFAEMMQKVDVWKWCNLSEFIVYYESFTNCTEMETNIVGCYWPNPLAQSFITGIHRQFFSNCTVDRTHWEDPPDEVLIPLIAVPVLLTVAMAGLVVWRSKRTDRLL

T6: rat calcitonin receptor (rat, UniProt P32214 25-516)
T6 construct: whole, on cells; Used as membranes prepared from the transfected cells; also called rCTR; rat calcitonin (a) receptor
T6 sequence (looked up): T3 sequence (looked up)

T7: rat amylin receptor (rat calcitonin receptor + rat RAMP 3) (rat, UniProt P32214 25-516; Q9JJ73 23-147)
T7 construct: whole, on cells; Used as membranes prepared from the transfected cells; also called rAmylin-R; rat amylin 3(a) receptor
T7 sequence (looked up) 1: T3 sequence (looked up)
T7 sequence (looked up) 2: T5 sequence (looked up) 2

B1: N^-1-[(4S)-4-carboxy-4-(19-carboxynonadecanoylamino)butanoyl]-Gly[Arg1,Arg17,Pro21,Pro27]-h-amylin (peptide)
peptide: {C20 diacid-γGlu}-GRCNTATCATQRLANFLRHSSPNFGAIPSSTNVGSNTY-NH2
modifications: disulfide 3-8
SMILES: CC[C@H](C)[C@H](NC(=O)[C@H](C)NC(=O)CNC(=O)[C@H](Cc1ccccc1)NC(=O)[C@H](CC(N)=O)NC(=O)[C@@H]1CCCN1C(=O)[C@H](CO)NC(=O)[C@H](CO)NC(=O)[C@H](Cc1c[nH]cn1)NC(=O)[C@H](CCCNC(=N)N)NC(=O)[C@H](CC(C)C)NC(=O)[C@H](Cc1ccccc1)NC(=O)[C@H](CC(N)=O)NC(=O)[C@H](C)NC(=O)[C@H](CC(C)C)NC(=O)[C@H](CCCNC(=N)N)NC(=O)[C@H](CCC(N)=O)NC(=O)[C@@H](NC(=O)[C@H](C)NC(=O)[C@@H]1CSSC[C@H](NC(=O)[C@H](CCCNC(=N)N)NC(=O)CNC(=O)CC[C@H](NC(=O)CCCCCCCCCCCCCCCCCCC(=O)O)C(=O)O)C(=O)N[C@@H](CC(N)=O)C(=O)N[C@@H]([C@@H](C)O)C(=O)N[C@@H](C)C(=O)N[C@@H]([C@@H](C)O)C(=O)N1)[C@@H](C)O)C(=O)N1CCC[C@H]1C(=O)N[C@@H](CO)C(=O)N[C@@H](CO)C(=O)N[C@H](C(=O)N[C@@H](CC(N)=O)C(=O)N[C@H](C(=O)NCC(=O)N[C@@H](CO)C(=O)N[C@@H](CC(N)=O)C(=O)N[C@H](C(=O)N[C@@H](Cc1ccc(O)cc1)C(N)=O)[C@@H](C)O)C(C)C)[C@@H](C)O
notes: also called compound 46
B2: N^ε-[2-[2-[2-[[(4S)-4-carboxy-4-(19-carboxynonadecanoylamino)butanoyl]amino]ethoxy]ethoxy]acetyl]Lys[Arg1,Arg17,Pro21,Pro27,His35]-h-amylin (peptide)
peptide: K([AEEA-γGlu-C20 diacid])RCNTATCATQRLANFLRHSSPNFGAIPSSTNVGSHTY-NH2
modifications: disulfide 3-8; N-terminus assumed
SMILES: CC[C@H](C)[C@H](NC(=O)[C@H](C)NC(=O)CNC(=O)[C@H](Cc1ccccc1)NC(=O)[C@H](CC(N)=O)NC(=O)[C@@H]1CCCN1C(=O)[C@H](CO)NC(=O)[C@H](CO)NC(=O)[C@H](Cc1c[nH]cn1)NC(=O)[C@H](CCCNC(=N)N)NC(=O)[C@H](CC(C)C)NC(=O)[C@H](Cc1ccccc1)NC(=O)[C@H](CC(N)=O)NC(=O)[C@H](C)NC(=O)[C@H](CC(C)C)NC(=O)[C@H](CCCNC(=N)N)NC(=O)[C@H](CCC(N)=O)NC(=O)[C@@H](NC(=O)[C@H](C)NC(=O)[C@@H]1CSSC[C@H](NC(=O)[C@H](CCCNC(=N)N)NC(=O)[C@@H](N)CCCCNC(=O)COCCOCCNC(=O)CC[C@H](NC(=O)CCCCCCCCCCCCCCCCCCC(=O)O)C(=O)O)C(=O)N[C@@H](CC(N)=O)C(=O)N[C@@H]([C@@H](C)O)C(=O)N[C@@H](C)C(=O)N[C@@H]([C@@H](C)O)C(=O)N1)[C@@H](C)O)C(=O)N1CCC[C@H]1C(=O)N[C@@H](CO)C(=O)N[C@@H](CO)C(=O)N[C@H](C(=O)N[C@@H](CC(N)=O)C(=O)N[C@H](C(=O)NCC(=O)N[C@@H](CO)C(=O)N[C@@H](Cc1c[nH]cn1)C(=O)N[C@H](C(=O)N[C@@H](Cc1ccc(O)cc1)C(N)=O)[C@@H](C)O)C(C)C)[C@@H](C)O
notes: also called compound 45
B3: N^ε1-[2-[2-[2-[[(4S)-4-carboxy-4-(19-carboxynonadecanoylamino)butanoyl]amino]ethoxy]ethoxy]acetyl]-[Arg17,Pro21,Pro27,Arg35]-h-amylin (peptide)
peptide: K([AEEA-γGlu-C20 diacid])CNTATCATQRLANFLRHSSPNFGAIPSSTNVGSRTY-NH2
modifications: disulfide 2-7; N-terminus assumed
SMILES: CC[C@H](C)[C@H](NC(=O)[C@H](C)NC(=O)CNC(=O)[C@H](Cc1ccccc1)NC(=O)[C@H](CC(N)=O)NC(=O)[C@@H]1CCCN1C(=O)[C@H](CO)NC(=O)[C@H](CO)NC(=O)[C@H](Cc1c[nH]cn1)NC(=O)[C@H](CCCNC(=N)N)NC(=O)[C@H](CC(C)C)NC(=O)[C@H](Cc1ccccc1)NC(=O)[C@H](CC(N)=O)NC(=O)[C@H](C)NC(=O)[C@H](CC(C)C)NC(=O)[C@H](CCCNC(=N)N)NC(=O)[C@H](CCC(N)=O)NC(=O)[C@@H](NC(=O)[C@H](C)NC(=O)[C@@H]1CSSC[C@H](NC(=O)[C@@H](N)CCCCNC(=O)COCCOCCNC(=O)CC[C@H](NC(=O)CCCCCCCCCCCCCCCCCCC(=O)O)C(=O)O)C(=O)N[C@@H](CC(N)=O)C(=O)N[C@@H]([C@@H](C)O)C(=O)N[C@@H](C)C(=O)N[C@@H]([C@@H](C)O)C(=O)N1)[C@@H](C)O)C(=O)N1CCC[C@H]1C(=O)N[C@@H](CO)C(=O)N[C@@H](CO)C(=O)N[C@H](C(=O)N[C@@H](CC(N)=O)C(=O)N[C@H](C(=O)NCC(=O)N[C@@H](CO)C(=O)N[C@@H](CCCNC(=N)N)C(=O)N[C@H](C(=O)N[C@@H](Cc1ccc(O)cc1)C(N)=O)[C@@H](C)O)C(C)C)[C@@H](C)O
notes: Derivative of human amylin; also called compound 38

What was measured:
[1] = biological target: T1, human amylin receptor (amylin 3(a) …); assay: SPA competition binding, displacement of 125I-rat amylin, membranes of BHK amylin 3(a)/CRE-luc cells
How it was run: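 Cell membranes were prepared by homogenisation in Na-HEPES/EDTA buffer, pH 7.4, and stored at −80° C. They were then coupled to SPA beads at 35 ng/μL final and exposed to compounds in assay buffer containing CaCl2, MgCl₂, OA and Tween20. After 120 min at 25° C, plates were counted and IC₅₀ derived.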

[2] = biological target: T2, human calcitonin receptor; assay: cell-based or functional assay
[3] = biological target: T1, human amylin receptor (amylin 3(a) …); assay: cell-based or functional assay
rat calcitonin receptor [4] = biological target: T3, rat calcitonin receptor; assay: ratio of IC50 on rat calcitonin receptor to IC50 on rat amylin receptor
[5] = biological target: T4, human calcitonin receptor; assay: ratio of IC50 on human calcitonin receptor to IC50 on human amylin receptor
Description: The resulting pellet was resuspended, homogenized and centrifuged (20.000 rpm, 15 min) in a buffer containing 20 mM Na-HEPES and 0.1 mM EDTA (pH 7.4, buffer 2). The resulting pellet was resuspended in buffer 2 and protein concentration was measured (BCA protein Assay, Pierce). The homogenate was kept cold during the whole procedure. The membranes were kept at −80° C. until use. The assay was performed in a 384 well Optiplate (PerkinElmer) in a total volume of 40 ul. Membranes were mixed with SPA beads. Final concentration of membranes 35 ng/μL final and SPA beads was 0.05 mg/well. Test-compounds were dissolved in DMSO and further diluted in assay buffer (50 mM Hepes, pH 7.4, 1 mM CaCl2, 5 mM MgCl₂, 0.1% OA and 0.02% Tween20). […] The final mixture was incubated with shaking at 400 rpm for 120 min at 25° C. prior to centrifugation (1500 rpm, 10 min). Samples were analyzed on TopCounter™ (Packard). The IC₅₀ was calculated using (one site binding competition analysis) GraphPad Prism5 as a measure of receptor affinity.
Membranes were prepared in the following way; the cells were rinsed with PBS and incubated with Versene for approximately 5 min before harvesting. The cells were flushed with PBS and the cell-suspension was centrifuged for 5 min at 1000 rpm. Cells were homogenized (Ultrathurrax) in a buffer containing 20 mM Na-HEPES and 10 mM EDTA (pH 7.4) and centrifuged at 20.000 rpm for 15 min. The resulting pellet was resuspended, homogenized and centrifuged (20.000 rpm, 15 min) in a buffer containing 20 mM Na-HEPES and 0.1 mM EDTA (pH 7.4, buffer 2). The resulting pellet was resuspended in buffer 2 and protein concentration was measured (BCA protein Assay, Pierce). The homogenate was kept cold during the whole procedure. The membranes were kept at −80° C. until use. Assay was performed in a 384 well Optiplate (PerkinElmer) in a total volume of 40 ul. Membranes were mixed with SPA beads.

rat calcitonin receptor [6] = biological target: T3, rat calcitonin receptor; assay: SPA competition vs 125I-calcitonin, membranes (Assay VIII)
[7] = biological target: T5, rat amylin receptor (rat calcitonin …); assay: SPA competition vs 125I-rat amylin, membranes (Assay VI)
rat calcitonin receptor [8] = biological target: T6, rat calcitonin receptor; assay: SPA competition with 125I-calcitonin, membranes of BHK cells with rat calcitonin receptor (Assay VIII)
[9] = biological target: T7, rat amylin receptor (rat calcitonin …); assay: SPA competition with 125I-rat amylin, membranes of BHK cells with rat calcitonin receptor + rat RAMP3 (Assay VI)

| IC50 [1] | hCTR funct. EC50 (pM) [2] | Ratio hCT/hAmylin funct. [3] | hAmylin-R funct. EC50 (pM) [3] | Ratio rCT/rAmylin binding (rat calcitonin receptor [4]) | Ratio hCT/hAmylin binding [5] | IC50 (rat calcitonin receptor [6]) | IC50 [7] | IC50 (rat calcitonin receptor [8]) | IC50 [9] | Binder |
| --- | --- | --- | --- | --- | --- | --- | --- | --- | --- | --- |
| 0.195 nM | 899 pM | 10.2 | 88 pM | – | – | – | – | – | – | B1 |
| – | – | – | – | 88.5 | 17.6 | 16.1 nM | 0.182 nM | – | – | K([γGlu-γGlu-C20 diacid])CNTATCATQRLAEFLRHSSPNFGAIPSSTNVGPETY-NH2 (disulfide 2-7 (inferred)) |
| 0.552 nM | 10100 pM | 17 | 594 pM | – | – | – | – | – | – | B2 |
| – | – | – | – | – | – | – | – | 38 nM | 0.383 nM | B3 |
